This data set has as its system ATP. In words: switch fluorescence ratio, 500 uM ATP over buffer (Cy3 cluster intensity, sum of 5 cycles each) (fold (ratio)); higher = stronger signal-on switching upon ATP binding; sequences stand for … in TCGTCGGCAGCGTCAGATGTGTATAAGAGACAGTTTTTTTTTTTTTTTTTTTTTTTTT…TC. The following applies: aptamer strand: ATP DNA aptamer (quencher-CACCTGGGGGAGTATTGCGGAGGAAGG + anchor), 100 nM annealed; ATP concentration: 500 uM. The essentials:
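Cy3-labelled switching-strand clusters on a modified Illumina MiSeq flow-cell were annealed to 100 nM quencher-labelled ATP aptamer, imaged in selection buffer, then imaged after 15 min with 500 uM ATP at 22 °C. Five buffer/ATP cycles ran, with NaOH stripping and re-annealing between them. The fluorescence ratio is summed target-cycle over summed buffer-cycle Cy3 intensity per cluster, averaged per switch-domain sequence. Clusters outside 100-1000 RFU were excluded.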

± gives the standard deviation of the averaged measurements.
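Further: ATP exposure 15 min at 22 °C before imaging.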

For the sequence CATTATTTCA, the switch fluorescence ratio was 0.997 ± 0.04.

As to AGCAGAAATG, the switch fluorescence ratio turned out to be 0.9979 ± 0.0074.

As to CTGAGAATGG, the switch fluorescence ratio is 1.02 ± 0.011.

Turning to TTACGGGAAT, the switch fluorescence ratio worked out at 1.08 ± 0.1.

Turning to GCTAATGTTA, the switch fluorescence ratio came out at 1.01 ± 0.03.

Turning to TTATTTTCAG, the switch fluorescence ratio was determined as 0.996 ± 0.053.

For CGGTGGATCA, the switch fluorescence ratio came out at 0.992 ± 0.017.

Regarding TTGTGTAGGG, the switch fluorescence ratio was found to be 1.01 ± 0.017.

Consider TTGATTTGCA, for which the switch fluorescence ratio is 0.99989 ± 0.00088.

CCACTAGTCG: the switch fluorescence ratio was 1.02 ± 0.016.

For TCGTTTGCGT, the switch fluorescence ratio amounted to 0.984 ± 0.032.

For GTTTGAGATA, the switch fluorescence ratio is 0.971 ± 0.035.

As for GGGTTTAATG, the switch fluorescence ratio turned out to be 0.96 ± 0.016.

Regarding TTGGGTAGCC, the switch fluorescence ratio was determined as 1.03 ± 0.032.

On to AATCATGGAG, for which the switch fluorescence ratio amounted to 0.9891 ± 0.004.

Regarding GAGTAGAAGA, the switch fluorescence ratio came to 1.01 ± 0.035.

Turning to GTGACTTTGT, the switch fluorescence ratio turned out to be 1 ± 0.023.

For the sequence GCGTGTGGTC, the switch fluorescence ratio was found to be 1.02 ± 0.039.

Turning to CGGAAAGCG, the switch fluorescence ratio was 1 ± 0.026.

Consider TCGATACTTT, for which the switch fluorescence ratio worked out at 1.03 ± 0.021.

As to GAAACAGATA, the switch fluorescence ratio was determined as 1 ± 0.012.

As to CTTGTTGTAT, the switch fluorescence ratio was 1.01 ± 0.02.

In the case of AGTGTGTTAG, the switch fluorescence ratio is 0.987 ± 0.015.

Regarding GAAAGTGTGT, the switch fluorescence ratio was determined as 1.004 ± 0.0092.

As to TTATCTTACA, the switch fluorescence ratio worked out at 0.996 ± 0.059.

Take AATGAGAGTG: the switch fluorescence ratio amounted to 1 ± 0.035.

In the case of GGGTTATGTT, the switch fluorescence ratio amounted to 0.977 ± 0.024.

As to AGTGTAATGC, the switch fluorescence ratio worked out at 1.15 ± 0.022.

With AATAGTAAAT, the switch fluorescence ratio is 0.999 ± 0.012.

As to ACGTCCGATC, the switch fluorescence ratio was found to be 1.11 ± 0.039.

With ATATTTTATG, the switch fluorescence ratio turned out to be 1.03 ± 0.044.

Consider GAGGGAGGGA, for which the switch fluorescence ratio amounted to 1.03 ± 0.059.

As for TTTCTTATGT, the switch fluorescence ratio came out at 1.03 ± 0.024.

In the case of TACGATTAGT, the switch fluorescence ratio turned out to be 0.9995 ± 0.0053.

On to AAGTCCCGCT, for which the switch fluorescence ratio stood at 1.12 ± 0.17.

In the case of TAAAGAAAAA, the switch fluorescence ratio turned out to be 1.02 ± 0.029.

As for AAAAAACTAT, the switch fluorescence ratio came to 1.02 ± 0.018.

TTTTTTGTAC: the switch fluorescence ratio was 1.06 ± 0.037.

As to AGGGCGGGAT, the switch fluorescence ratio amounted to 0.965 ± 0.049.

Take ATTGAACGGA: the switch fluorescence ratio stood at 1 ± 0.059.

For the sequence AGACGATTAG, the switch fluorescence ratio was found to be 0.977 ± 0.03.

Regarding TCATGAAAAG, the switch fluorescence ratio turned out to be 0.997 ± 0.013.

Consider CGCACCGGTG, for which the switch fluorescence ratio was determined as 1.02 ± 0.032.

Take GGTCAGAAGG: the switch fluorescence ratio was found to be 0.996 ± 0.026.

Turning to GGGCCTGGTA, the switch fluorescence ratio was found to be 0.973 ± 0.03.

For ATTTTCATTA, the switch fluorescence ratio is 0.996 ± 0.0096.

Consider GATAAGATGG, for which the switch fluorescence ratio is 0.979 ± 0.034.

Take AGGGGTGTAG: the switch fluorescence ratio turned out to be 1.03 ± 0.057.

Take AAACGGACGG: the switch fluorescence ratio turned out to be 1.24 ± 0.029.

On to CTAGTTGGAT, for which the switch fluorescence ratio came to 0.9908 ± 0.0053.

With TTCTATTTAA, the switch fluorescence ratio was found to be 1.02 ± 0.029.

As to AATCATTATT, the switch fluorescence ratio was 1.01 ± 0.017.

For GTTGCAGTTC, the switch fluorescence ratio is 1.01 ± 0.034.

As for ATGGGGGTCA, the switch fluorescence ratio came out at 0.998 ± 0.015.

In the case of ATGATCAGTG, the switch fluorescence ratio amounted to 0.98 ± 0.056.

Take TTGATCACTT: the switch fluorescence ratio is 1.001 ± 0.005.

Turning to ACGGTGGGGG, the switch fluorescence ratio was 1.01 ± 0.025.

In the case of CACGGGGTCG, the switch fluorescence ratio turned out to be 1.036 ± 0.0027.

Regarding GCAATCGTGG, the switch fluorescence ratio came out at 1.035 ± 0.0042.

With GGGATGTTAA, the switch fluorescence ratio turned out to be 0.976 ± 0.038.

On to GGGCTTAAGG, for which the switch fluorescence ratio was 0.97 ± 0.015.

As to TTTCGGAGAA, the switch fluorescence ratio is 0.962 ± 0.028.

As to GAGGGTGTAG, the switch fluorescence ratio turned out to be 0.988 ± 0.018.

On to GCGTCTGGGC, for which the switch fluorescence ratio was 0.992 ± 0.015.

Regarding CAAATTGGTG, the switch fluorescence ratio was determined as 1.083 ± 0.0018.

In the case of ATCCCGTAGG, the switch fluorescence ratio stood at 0.9905 ± 0.0084.

As to TTTCGGAGTG, the switch fluorescence ratio turned out to be 1.024 ± 0.0066.

For GGGGAGTTTA, the switch fluorescence ratio came out at 1.027 ± 0.0017.

Consider TTGGGAAGTA, for which the switch fluorescence ratio was found to be 0.985 ± 0.016.

Consider TAACTGGTAC, for which the switch fluorescence ratio came out at 1.13 ± 0.05.

For the sequence CACACAGTCG, the switch fluorescence ratio was 1.09 ± 0.015.

As for TGGGGGCGAC, the switch fluorescence ratio is 1 ± 0.057.

Take ACATTTGGGG: the switch fluorescence ratio came to 1.03 ± 0.066.

Consider TAAGTTGTAA, for which the switch fluorescence ratio is 0.999 ± 0.019.

CGGGGTGAAC: the switch fluorescence ratio stood at 0.994 ± 0.038.

With GAGTCGGTGT, the switch fluorescence ratio stood at 1.026 ± 0.0063.

In the case of GGCGCAAGCT, the switch fluorescence ratio came out at 1.02 ± 0.025.

On to GCCGGAAAGG, for which the switch fluorescence ratio amounted to 0.9857 ± 0.0075.

For the sequence AGCCTATACT, the switch fluorescence ratio stood at 1.6 ± 0.16.

For the sequence GCTTCAGGGT, the switch fluorescence ratio was 0.989 ± 0.025.

On to TGGGTATAAT, for which the switch fluorescence ratio was 1.014 ± 0.0096.

For TAGCGTGTAG, the switch fluorescence ratio was 1.02 ± 0.022.

TAATTGCTTT: the switch fluorescence ratio was determined as 0.966 ± 0.029.

As to AGGGGTTGAG, the switch fluorescence ratio was found to be 0.998 ± 0.036.

In the case of GTTTGAGCAC, the switch fluorescence ratio was 1.02 ± 0.023.

On to TTGTTAGGGG, for which the switch fluorescence ratio amounted to 0.986 ± 0.019.

As to AGTCCTGGCG, the switch fluorescence ratio stood at 1.07 ± 0.023.

As to GTAACAGGCG, the switch fluorescence ratio was found to be 0.905 ± 0.021.

With ATGGAGGCGT, the switch fluorescence ratio was found to be 0.994 ± 0.015.

Regarding CAGTTATTGG, the switch fluorescence ratio amounted to 0.978 ± 0.038.

In the case of ACGGGTGGCT, the switch fluorescence ratio was 1 ± 0.014.

For CCTTTTGAAC, the switch fluorescence ratio amounted to 1.04 ± 0.028.

With TGGATAGAGT, the switch fluorescence ratio stood at 0.985 ± 0.02.

As to AAAAGTGGGT, the switch fluorescence ratio worked out at 0.9942 ± 0.0081.

Consider TGGAAGAGGG, for which the switch fluorescence ratio stood at 1 ± 0.018.

Turning to TTGGTGTGTG, the switch fluorescence ratio turned out to be 0.958 ± 0.022.

Consider CCACCTTACG, for which the switch fluorescence ratio was determined as 1.54 ± 0.077.

Regarding ACTATTGGTA, the switch fluorescence ratio came out at 1.03 ± 0.046.

In the case of TACTGTGTTA, the switch fluorescence ratio is 0.979 ± 0.026.

On to TATCCTTTTT, for which the switch fluorescence ratio was 1.03 ± 0.057.

For CGCTCCGATG, the switch fluorescence ratio stood at 1.26 ± 0.025.

For the sequence CGAGATAAGG, the switch fluorescence ratio is 1 ± 0.014.

Regarding TTGCCTTTTG, the switch fluorescence ratio amounted to 1.08 ± 0.16.

Take GACTGGGCAG: the switch fluorescence ratio came out at 1.01 ± 0.011.

For the sequence GCCGGTGTTT, the switch fluorescence ratio was determined as 1.02 ± 0.036.

Take CCTGGTTTTT: the switch fluorescence ratio is 1.12 ± 0.15.

Turning to GGGTAGTGCG, the switch fluorescence ratio came out at 0.9812 ± 0.0055.

GGTGTAGGCG: the switch fluorescence ratio came out at 0.969 ± 0.039.

Consider TTGGAGTATA, for which the switch fluorescence ratio was determined as 1.93 ± 0.28.

Regarding TAGAAAGCCT, the switch fluorescence ratio was determined as 1.06 ± 0.045.

TTAATCCCGT: the switch fluorescence ratio was 1.04 ± 0.048.

Turning to ATTGCGGGGA, the switch fluorescence ratio came out at 0.9848 ± 0.0072.

With GATGGGGTTC, the switch fluorescence ratio amounted to 1.01 ± 0.018.

Turning to TTATCGCTTG, the switch fluorescence ratio is 0.9974 ± 0.003.

Turning to GTTGGGACGG, the switch fluorescence ratio was determined as 0.9569 ± 0.006.

In the case of CTCTATTGTG, the switch fluorescence ratio amounted to 0.964 ± 0.027.

Consider CTGTCAGATT, for which the switch fluorescence ratio amounted to 0.974 ± 0.025.

Turning to TTTAGTGCAT, the switch fluorescence ratio was determined as 1.03 ± 0.034.

As to CTATCATCAT, the switch fluorescence ratio was found to be 0.9978 ± 0.0084.

In the case of TTCTTGGGTA, the switch fluorescence ratio was 0.989 ± 0.011.

Source of the values: the supplement of paper PMC10126150.
